From the supplement of paper PMC10567573

B1: ZNF193 (parent)
chain: QCIECGKSFNRHCNLIRHQKIHTV
B2: LCOR (parent)
chain: PCAGSTSLSHSPGCSSTQGNGRPG

Variants of: B1
Assay: protein stability index of a GFP-peptide fusion (GPS, HEK-293T) (PSI 1-6); higher = more stable
Conditions: c terminus: a fixed tail appended
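Also: lentivirally expressed fusions sorted by FACS into six bins by GFP to DsRed ratio, PSI derived from sequencing read proportions per bin multiplied by bin number.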

Protein stability index, by site and new letter:
H12: Q 4, L 4.23
N14: W 2.29, K 3.38, G 2.72
C5: I 1.53, S 2.56, G 2.01
R11: G 3.25, L 3.5, P 3.21, I 2.89
H22: Y 1.56, S 2.45, G 2.94, F 1.63, L 2.88, N 2.78, V 2.32
K20: R 3.4, D 2.83, T 2.63, Y 2.2, C 3.47
K7: C 2.51
I16: H 3.18, S 3.41
T23: C 3.58, N 4.08
C2: L 1.63
G6: I 1.42, V 1.92, Q 2.44, S 2.54, D 2.62, P 2.18
S8: H 3.29, F 4.03, W 3.17, K 3.64, V 4.35, N 3.47
I21: H 3.77, C 3.85, N 3.52
V24: D 3.83, M 4.19, K 4.68, F 3.41
H18: E 2.33
Q19: M 3.48, R 2.98, V 2.5, T 2.79
R17: G 3.07, C 3.57, L 2.9
I3: M 3.69, L 3.87, C 3.63, K 3.87
N10: W 3.51, H 3.91, A 3.54, D 3.88
C13: W 3.04, M 2.91, K 3.74
L15: I 2.24, H 4.19, F 3.32

Variants of: B2
Assay: as above
Conditions: c terminus: a fixed tail appended

Protein stability index, by site and new letter:
T17: H 3.36, S 2.53, M 2.17, K 3.44, I 2.02, P 3.51, F 1.81, E 3.47, V 1.75, W 1.89, A 3.08, N 2.29, Y 2.28, C 1.47
G13: H 3.46, C 1.44, F 2.93, K 3.39, S 3.46, N 3.61, R 3.6, Q 2.56, Y 2.53, T 2.72, M 2.56, D 3.23
R22: D 4.3, P 3.83, C 3.92, L 2.47, E 4.55, A 4.1, N 4.2, I 3.97, Q 3.98, K 4.23, Y 4.14, S 5.07, M 3.78, F 3.37, W 2.55, T 3.46, H 3.96, G 3.06
H10: P 3.37, E 5.05, R 3.41, T 4.4, S 4.29, Y 4.3, D 4.89, K 4.86, A 4.02, Q 4.94, I 3.89, L 4.39, C 2.72
N20: E 2.88, A 4.09, T 2.35, S 3.1, F 2.66, M 2.83, R 3.07, L 2.91, H 2.79, V 3.58, I 2.19, P 2.51, D 3.44
S7: Y 2.87, W 3.05
S11: W 2.74, G 2.96, D 4, R 2.53, K 2.81, F 3.1, Q 3.27, P 3.16, E 3.73, M 3.28, Y 2.9, V 2.86, A 2.63, H 3.3, N 2.75, C 1.94, I 2.18
L8: G 4.25, N 4.15, R 3.87, I 3.67, F 3.91, C 4.55, T 4.15, P 4.24, Y 4.95, V 3.58, E 4.45, K 4.34
P23: V 3.39, D 4.15, S 3.44, Q 2.03, H 3.88, M 2.98, N 3.79, F 2.46, W 2.44, T 3.34, L 3.24, E 3.39, C 3.45, A 3.78, Y 2.75, K 3.78, I 3.02, R 3.22
S9: P 3.79, H 2.36, T 3, D 4.12, Y 1.89, F 2.4, K 3.62, Q 3.48, R 1.04, W 2.66, G 2.85, E 3.85, M 3.48
S16: H 2.21, I 2.07, L 1.6, M 2.22, Q 3.03, G 3.74, P 4.1, R 4.34, A 3, F 2.87, K 3.37, D 4.05, Y 2.02, E 3.18, N 3.53
Q18: N 3.51, R 3.01, F 2.27, E 3.34, M 3.01, D 2.98, S 3.55, Y 2.75, V 2.5, I 2.48, G 3.53, T 3.37, P 2.89, C 2.73, K 3.77
G21: W 2.34, S 2.81, P 2.53, R 3.29, N 3.57, Y 2.92, D 3.95, C 2.85, H 2.31, I 3.54, K 3.79, E 3.96, T 2.1, F 1.98, Q 3.36, A 3.63
C14: H 4.93, Y 3.83, A 4.12, R 3.86, E 4.9, G 5.25, F 4.71, V 4.85, P 4.48, L 4.34, T 4.93, Q 5.14, S 5.88, M 4.53, K 5.01
G19: E 3.8, S 3.84, L 2.91, Y 2.5, W 1.91, P 3.31, H 2.32, Q 3.64, F 3.15, I 2.9, D 3.91, C 2.56, R 2.32, M 2.88, T 3.24, V 3.19, K 3.48, A 3.65, N 2.94
S15: V 3.3, E 3.55, H 2.4, Q 2.79, K 2.39, D 4.31, Y 2.92, W 2.85, F 2.83, I 2.8, A 2.91, M 2.95, L 3.36, G 2.49
G24: V 2.68, K 3.77, Y 2.61, D 3.72, Q 3.37, P 3.42, W 2.47, C 2.48, H 3.81, R 3.07, T 3.51, I 3.09, F 2.95, N 3.87, A 3.38, S 3.22, L 2.94, E 2.65, M 2.82
P12: G 4.15, A 3.99, H 3.9, R 2.92, S 3.55, Q 3.02, V 3.15, E 4.43, C 1.01, Y 3.39, L 3.23, K 3.86, N 4.11, M 3.12, I 2.73, D 4.35, T 4.1, F 1.91
